Source: the Human Domainome abundance scans (Beltran et al. 2025)
± gives the uncertainty stated by the source.

B1: Ankyrin-1, residues 1405 to 1484; numbered along this chain, P16157 (parent)
chain: MKMAVISEHLGLSWAELARELQFSVEDINRIRVENPNSLLEQSVALLNLWVIREGQNANMENLYTALQSIDRGEIVNMLE

Variants of: B1
Assay: abundance fitness (aPCA) (normalised: wild type 0, dead -1); higher = more abundant; growth selection in yeast, the domain comes from the species named
Conditions: Homo sapiens

R32E and R32V are within error of each other in abundance fitness: 0.031 ± 0.05 for the first, -0.041 ± 0.059 for the second.

E34F and E34S are within error of each other in abundance fitness: -0.185 ± 0.16 for the first, -0.144 ± 0.12 for the second.

Going from E34V to E16V, the abundance fitness rises from -0.308 ± 0.099 to -0.037 ± 0.05.

First: E16T
Second: E16W
The abundance fitness of the first is higher: -0.222 ± 0.095 for the first, -0.593 ± 0.15 for the second.

E16C and E16F are within error of each other in abundance fitness: -0.271 ± 0.083 for the first, -0.23 ± 0.15 for the second.

Compared with E16K, Y64D is lower in abundance fitness: -0.088 ± 0.086 for the first, -0.797 ± 0.44 for the second.

Y64W and Y64K are within error of each other in abundance fitness: -0.531 ± 0.084 for the first, -0.473 ± 0.2 for the second.

G11S and G11K are within error of each other in abundance fitness: -0.616 ± 0.13 for the first, -0.362 ± 0.17 for the second.

G11R and G11H are within error of each other in abundance fitness: -0.41 ± 0.084 for the first, 0.028 ± 0.4 for the second.

Going from G11E to G11L, the abundance fitness falls from 0.195 ± 0.14 to -0.447 ± 0.11.

G11Q and E54H are within error of each other in abundance fitness: -0.276 ± 0.17 for the first, -0.294 ± 0.17 for the second.

Compared with E54M, E54R is lower in abundance fitness: -0.294 ± 0.058 for the first, -0.456 ± 0.065 for the second.

First: E54K
Second: E54F
The abundance fitness of the first is higher: -0.29 ± 0.12 for the first, -0.606 ± 0.15 for the second.

E54N and E54C are within error of each other in abundance fitness: -0.043 ± 0.091 for the first, -0.198 ± 0.089 for the second.

E54Y and L40S are within error of each other in abundance fitness: -0.357 ± 0.15 for the first, -0.16 ± 0.059 for the second.

L40Q and L40F are within error of each other in abundance fitness: -0.029 ± 0.17 for the first, 0.015 ± 0.067 for the second.

I6V and Q22N are within error of each other in abundance fitness: 0.224 ± 0.15 for the first, -0.077 ± 0.22 for the second.

Going from Q22G to Q22W, the abundance fitness falls from -0.08 ± 0.05 to -0.506 ± 0.088.

Q22D and Q22T are within error of each other in abundance fitness: -0.218 ± 0.11 for the first, -0.044 ± 0.072 for the second.

Going from Q22V to Q22K, the abundance fitness rises from -0.494 ± 0.079 to 0.011 ± 0.08.

Q22I and Q22H are within error of each other in abundance fitness: -0.276 ± 0.15 for the first, -0.413 ± 0.19 for the second.

N48M and N48W are within error of each other in abundance fitness: -0.575 ± 0.11 for the first, -0.834 ± 0.2 for the second.

Compared with N48F, N48S is higher in abundance fitness: -0.896 ± 0.24 for the first, -0.277 ± 0.07 for the second.

Going from N48I to A45F, the abundance fitness rises from -1.04 ± 0.24 to -0.65 ± 0.14.

A45E and Q56H are within error of each other in abundance fitness: -0.023 ± 0.074 for the first, -0.213 ± 0.26 for the second.

Going from Q56E to Q56C, the abundance fitness falls from 0.055 ± 0.085 to -0.167 ± 0.1.

A58R and A58T are within error of each other in abundance fitness: -0.049 ± 0.065 for the first, -0.195 ± 0.14 for the second.

A58Y and A58V are within error of each other in abundance fitness: -0.065 ± 0.22 for the first, 0.124 ± 0.064 for the second.

A58G and A58N are within error of each other in abundance fitness: 0.038 ± 0.048 for the first, 0.092 ± 0.19 for the second.

A58L and V51R are within error of each other in abundance fitness: 0.157 ± 0.063 for the first, 0.065 ± 0.06 for the second.

V51F and V51K are within error of each other in abundance fitness: 0.071 ± 0.11 for the first, 0.156 ± 0.1 for the second.

First: V51I
Second: E74V
The abundance fitness of the first is higher: 0.017 ± 0.11 for the first, -0.839 ± 0.15 for the second.

First: E74P
Second: E74L
The abundance fitness of the first is higher: -0.264 ± 0.1 for the first, -0.562 ± 0.11 for the second.

E74N and E74C are within error of each other in abundance fitness: -0.478 ± 0.17 for the first, -0.469 ± 0.16 for the second.

V76K and V76T are within error of each other in abundance fitness: -0.283 ± 0.14 for the first, -0.244 ± 0.067 for the second.

V76Q and V76H are within error of each other in abundance fitness: -0.505 ± 0.12 for the first, -0.465 ± 0.19 for the second.

V76W and V76Y are within error of each other in abundance fitness: -0.388 ± 0.044 for the first, -0.264 ± 0.11 for the second.

V76E and S13L are within error of each other in abundance fitness: -0.358 ± 0.094 for the first, -0.417 ± 0.12 for the second.

S13D and D71N are within error of each other in abundance fitness: 0.155 ± 0.089 for the first, 0.006 ± 0.083 for the second.

First: D71T
Second: D71K
The abundance fitness of the first is lower: -0.385 ± 0.15 for the first, -0.058 ± 0.079 for the second.

First: E61G
Second: S7L
The abundance fitness of the first is higher: -0.414 ± 0.25 for the first, -0.808 ± 0.1 for the second.

First: S7C
Second: S7W
The abundance fitness of the first is higher: -0.089 ± 0.068 for the first, -0.691 ± 0.14 for the second.

S7E and S7F are within error of each other in abundance fitness: -0.261 ± 0.089 for the first, -0.126 ± 0.12 for the second.

S7Y and G55C are within error of each other in abundance fitness: -0.242 ± 0.14 for the first, -0.389 ± 0.17 for the second.

G55S and G55I are within error of each other in abundance fitness: -0.277 ± 0.12 for the first, -0.687 ± 0.32 for the second.

Compared with G55R, I31L is higher in abundance fitness: -0.394 ± 0.078 for the first, -0.149 ± 0.059 for the second.

I31Y and V5S are within error of each other in abundance fitness: -0.448 ± 0.41 for the first, -0.361 ± 0.062 for the second.

V5R and V5E are within error of each other in abundance fitness: -0.521 ± 0.062 for the first, -0.372 ± 0.096 for the second.

V5H and V5T are within error of each other in abundance fitness: -0.216 ± 0.1 for the first, -0.266 ± 0.089 for the second.

W50F and W50R are within error of each other in abundance fitness: -0.713 ± 0.28 for the first, -0.863 ± 0.12 for the second.

First: W50Y
Second: W50D
The abundance fitness of the first is higher: 0.015 ± 0.17 for the first, -0.653 ± 0.29 for the second.

First: W50G
Second: W50L
The abundance fitness of the first is lower: -1.07 ± 0.16 for the first, -0.368 ± 0.082 for the second.

W50T and I70P are within error of each other in abundance fitness: -0.823 ± 0.16 for the first, -0.8 ± 0.19 for the second.

First: I70G
Second: E20H
The abundance fitness of the first is lower: -0.911 ± 0.11 for the first, -0.12 ± 0.1 for the second.

Compared with E20Q, E20F is lower in abundance fitness: 0.069 ± 0.12 for the first, -0.345 ± 0.093 for the second.

E20I and E20N are within error of each other in abundance fitness: -0.135 ± 0.12 for the first, -0.087 ± 0.14 for the second.

Going from E20D to L39C, the abundance fitness rises from -0.508 ± 0.15 to 0.066 ± 0.14.

First: L39W
Second: L39T
The abundance fitness of the first is lower: -0.262 ± 0.09 for the first, 0.116 ± 0.16 for the second.

First: L39P
Second: L67T
The abundance fitness of the first is higher: 0.058 ± 0.12 for the first, -0.965 ± 0.29 for the second.

Going from I75C to I75L, the abundance fitness rises from -0.734 ± 0.23 to -0.199 ± 0.08.

I75W and I75G are within error of each other in abundance fitness: -0.663 ± 0.17 for the first, -0.509 ± 0.073 for the second.

I75S and R72S are within error of each other in abundance fitness: -0.457 ± 0.1 for the first, -0.57 ± 0.11 for the second.

R72M and R72G are within error of each other in abundance fitness: -0.356 ± 0.13 for the first, -0.499 ± 0.065 for the second.

Compared with R72T, M78I is higher in abundance fitness: -0.797 ± 0.21 for the first, 0.041 ± 0.12 for the second.

M78L and M78S are within error of each other in abundance fitness: 0.001 ± 0.059 for the first, -0.121 ± 0.066 for the second.

First: M78W
Second: A18F
The abundance fitness of the first is higher: -0.19 ± 0.075 for the first, -0.872 ± 0.28 for the second.

Compared with A18L, A18C is lower in abundance fitness: -0.535 ± 0.078 for the first, -1.05 ± 0.29 for the second.

First: A18R
Second: E41Y
The abundance fitness of the first is lower: -0.681 ± 0.1 for the first, -0.28 ± 0.096 for the second.

Compared with E41D, E41M is lower in abundance fitness: 0.007 ± 0.12 for the first, -0.275 ± 0.12 for the second.

E41I and E41H are within error of each other in abundance fitness: -0.579 ± 0.48 for the first, -0.161 ± 0.14 for the second.

Going from E41R to M3D, the abundance fitness falls from 0.054 ± 0.053 to -0.332 ± 0.28.

First: M3R
Second: M3S
The abundance fitness of the first is higher: -0.045 ± 0.038 for the first, -0.365 ± 0.066 for the second.

M3E and M3A are within error of each other in abundance fitness: -0.275 ± 0.093 for the first, -0.435 ± 0.08 for the second.

Compared with W14V, W14R is lower in abundance fitness: -0.67 ± 0.13 for the first, -1.08 ± 0.21 for the second.

W14K and D27P are within error of each other in abundance fitness: -0.545 ± 0.21 for the first, -0.822 ± 0.23 for the second.

D27L and D27Y are within error of each other in abundance fitness: -0.429 ± 0.077 for the first, -0.597 ± 0.2 for the second.

Going from D27W to D27M, the abundance fitness rises from -0.89 ± 0.15 to -0.213 ± 0.14.

First: D27A
Second: D27F
The abundance fitness of the first is higher: -0.071 ± 0.069 for the first, -0.436 ± 0.2 for the second.

D27V and E80N are within error of each other in abundance fitness: -0.089 ± 0.058 for the first, -0.045 ± 0.14 for the second.

N29Q and N29T are within error of each other in abundance fitness: -0.041 ± 0.077 for the first, -0.005 ± 0.082 for the second.

First: N29S
Second: P36G
The abundance fitness of the first is higher: -0.156 ± 0.062 for the first, -0.298 ± 0.071 for the second.

Going from P36N to P36T, the abundance fitness falls from -0.104 ± 0.25 to -0.525 ± 0.15.

Compared with P36V, P36D is higher in abundance fitness: -0.666 ± 0.12 for the first, -0.165 ± 0.14 for the second.

In the case of P36E, the abundance fitness is reported as -0.066 ± 0.12.
